Test results reported in the DeepSol protein solubility set.

experiment: soluble on expression in E. coli; label from the status in PepcDB or PDB records

| Sequence | soluble on expression in E. coli |
| --- | --- |
| DVQLVESGGGSVQAGGSLRLSCAVSGYKDRNYCMGWFRRAPGKEREGVAVIDSSGRTAYADSVKGRFTISRDVALDTAYLQMNSLKPEDTAMYYCAAGWSSLGSCGTNRNRYNYWGQGTQVTVSSRGRHHHHHH | soluble |
| SLKNKTLIALLLACSPTLAFAHNLTVGSPVPAVGVEKHGEIVLQDNNINYQKWRSADLLGKVRVIQAIAGRSSSKEMNAPLMAAITAAKFPAESYQTTTIINQDDAIWGTSSFVKSSAQDSKKEFPWSSMVLDEFGLVAQAWQLQAESSAIIVQDKQGNVLFVKEGALNEADIQTVLGLIQQNL | not soluble |
| MSAHDRKEPAQRCPAALAAERLQIGLEHCGISADVHQGYGVSLVSVWTNLVVWTDGLAYRWWTGKISAKTGRRLYRVYAVDNPITVAHCVAQRYEELRKASHHSRGVVERTS | not soluble |
| MGSDKIHHHHHHSQRQMDIIGNNLANSSTLGYKSADTQFANMLSQSLTSGSGSFQVGQGVAISSVNTKFDQGSFESTGSVTDMAIDGEGFFPVKDKEGAIYYTRAGAFVIDKDGYLVDVNGYRVQGINLFSAPGDAELTDICLKNIQSAPSATKTFGIGVNLNDSEDAGTSFVVSQNVFDSKGAIHNLSLTFTKTEGDGYWGCQAKLDNVETINSSCCGIKFDESGNLKNTYLTSCSAGAVSGGGAITSTTVNKPGQLYLNGTIACTRGADADTWTISSSEYPNLEFSLGDLGNDDEIAIDLDGKGGTDITLALGAGFADLSSFDLTISQVESNAADVTFEFPGLANGADIGSGNALTWNLIGDDALQVTGYAATSVIKALEVDGYTSGVLKSLSVEKDGIISGIFTNGQTSDLGQVVLANFPNVGALRKIGSYFAETNFSGAAIINSPGTGGLGEIMSNSLEQSNTDVSMEFVNMINAQRAYQASARIITTSDEMLTELMNIKR | not soluble |
| RDIIQYIPARSSYGTPPFVPPGPSPYVGTGMQEYRKLRSTLDKSHSELKKNLKNETLKEVDELKSEAGLPGKAVSANDIRDEKSIVDALMDAKAKSLKAIEDRPANLYTASDFPQKSESMYQSQLLASRKFYGEFLDRHMSELAKAYSADIYKAQIAILKQTSQELENKARSLEAEAQRAAAEVEADYKARKANVEKKVQSELDQAGNALPQLTNPTPEQWLERATQLVTQAIANKKKLQTANNALIAKAPNALEKQKATYNADLLVDEIASLQARLDKLNAETARRKEIARQAAIRAANTYAMPANGSVVATAAGRGLIQVAQGAASLAQAISDAIAVLGRVLASAPSVMAVGFASLTYSSRTAEQWQDQTPDSVRYALGMDAAKLGLPPSVNLNAVAKASGTVDLPMRLTNEARGNTTTLSVVSTDGVSVPKAVPVRMAAYNATTGLYEVTVPSTTAEAPPLILTWTPASPPGNQNPSSTTPVVPKPVPVYEGATLTPVKATPETYPGVITLPEDLIIGFPADSGIKPIYVMFRDPRDVPGAATGKGQPVSGNWLGAASQGEGAPIPSQIADKLRGKTFKNWRDFREQFWIAVANDPELSKQFNPGSLAVMRDGGAPYVRESEQAGGRIKIEIHHKVRIADGGGVYNMGNLVAVTPKRHIEIHKGGK | not soluble |
| MTEKINIQEVLVVEGKDDTANLRRFYEVDTYETRGSAITEEDLERINRLNDLRGVIVLTDPDYNGERIRKLIMAAVPTARHAFLNRNEAVPSSKSKGRSLGVEHANFEDLQKALAHVTQQYDDESYFDIRQTDLIRLGLLMASDSRKRREYLGEKLRIGYANGKQLLKRLELFGITLAEVEEVMETYEE | not soluble |
| AHHHHHHGSGRIISIVSGKGGTGKTTVTANLSVALGDRGRKVLAVDGDLTMANLSLVLGVDDPDVTLHDVLAGEANVEDAIYMTQFDNVYVLPGAVDWEHVLKADPRKLPEVIKSLKDKFDFILIDCPAGLQLDAMSAMLSGEEALLVTNPEISCLTDTMKVGIVLKKAGLAILGFVLNRYGRSDRDIPPEAAEDVMEVPLLAVIPEDPAIREGTLEGIPAVKYKPESKGAKAFVKLAEEIEKLAGLKARVMY | not soluble |
| MSLGSTQLQLHGLLSNISSKEGTYAKLGGLYTQSLARLVAKCEDLFMGGQKKELHFNENNWSLFKLTCNKPCCDSGDAIYYCATCSEDPGSTYAVKICKAPEPKTVSYCSPSVPVHFNIQQDCGHFVASVPSSMLSSPDAPKDPVPALPTHPPAQEQDCVVVITREVPHQTASDFVRDSAASHQAEPEAYERRVCFLLLQLCNGLEHLKEHGIIHRDLCLENLLLVHCTLQAGPREKQLPRLIISNFLKAKQKPGGTPNLQQKKSQARLAPEIVSASQYRKFDEFQTGILIYELLHQPNPFEVRAQLRERDYRQEDLPPLPALSLYSPGLQQLAHLLLEADPIKRIRIGEAKRVLQCLLWGPRRELVQQPGTSEEALCGTLHNWIDMKRALMMMKFAEKAVDRRRGVELEDWLCCQYLASAEPGALLQSLKLLQEGHHHHHH | soluble |
| MLQVTGIPDACDNLAPIPMECDAPFLSIKGELPRELNGTLYRNGANPQFVSPNAHWFFGDGMLHAFHLENGRASYRNRWVRTPKWLAEHEAGRPLYGEFNLKLPDAPRSVPDDGNVANTNIVFHAGRLLALEEAHLPMQIERDTLETRCYCDYGGALKGPFTAHPKIDPVTGEMLFFGYNASGPLTRTMSFGAIDASGNVTRLEHFKAPFAAMVHDFIVTEHHVLFPILPLTGSIWRAMRGRPPYAWDPRKGSYVGVMKRSGSTRDVRWFRGEACFVFHVMNAWEDGTRIVADVMQSEEAPLFTHPDGRRTDPEKGRARLCRWSFDLAGNTNAFKRSYLDEISGEFPRIDERRAGLRSGHGWYACASPETPMLGMLTGLVHVDGNGHRRTRYLLPTGDTIGEPVFVPRAADANEAEGWLLAVVWRGCENRSDLAVFNATDIAAGPIALVQLGHRIPDGFHGNWVPAGAAALEHHHHHH | not soluble |
| HPPMPDYTRSLESTLSFWASWVEELPHQRLYDAEVRRSMLVLRALTDLQTGGIVAAPTTSLPEDFGGIRNWDYRYVWLRDSALTIEALVEYGFSQAALQWRTWLLRAIAGDPENLRIMYGLGGERHLPERELQHLRGYENSVPVRVGNGAAEQYQADVVGEVMVALETIRRAGCLEDEFSWGMQKAILDFQEANFDRKDQGIWEMRSEPQYFTHGRAMMWAGFDRGIKAIEEFNLDGPIERWRELRAKLREEIMTNGFNEEIQSFTQCYDNTQVDASLLQLAQIGFIGFDDPKMLSTVARIEQELLDAHGFLHRYHTDGSDGLAGDEYPFLICSFWLVEQYASSNRLDEAKEKMNRILAVQSPLGLLAEEYSTHHGRLAGNYPQAFSHIGLISAARAINFEEARNR | not soluble |
| MTVRRTAAARRGRDRKAEIVFPAPGADRFGRGDEPSVAVIGGGIAGLAAATLMAERGARVTLYEKEDAVGGRLSGRRTTLADGSAVTMTRGFHAFFRQYYNLRGLLRRTDPGLDRLTPLPDYPLRHSGGLTDGFARVPRTPPLSAIGFVALSPTFGWRDLAAMDPRAALPLLDVRVPQVYERFDGVTATAFLESVRFPEAAHHLAFEVFSRSFFADPRRLSAAELLLMFHIYFLGSSEGLLFDVPVEPFPQALWNPLGDYLRRLGADVRTGTPVHGILPRADGGADVLTDTGADRHQAVVLALDTAGLRQTVAASPGLGTDTWRDGIAALRTAPPFLVSRLWLDRPVDADRPGFLGTSGYGGLDNVSVLERYEGEAARWAARTGGSVVELHAYAVDPAAEPKEVQDELVDRLHQAYPETREARVVDARHEWRADCPMFEVGSHRRRPTVRTPHPWLTLAGDGIRCDLPVALMERAATTGFLAANALLADRGVRGQVLWTVPRTGRSPVLRAFGAVAGHRSAPLEHHHHHH | not soluble |
| LLAKEKYNGTESDDKYDPVEIVKWKIDREDGRKTLNSYINVLVLGLDDDEKRSDVIALINYNPDENKMNILSIARDTRVKVNGKYMKINALIGKGGEKMVIDMVEDITGLPVDYYVTLNFKGFREIVDTLGGVEINVPFDMDYDDPYQNLHIHLKKGKQVLDGKKAEQFVRYRKGNHNGEGYEDGDLGRIKMQQLFMREFVNQKLKLKYLLKADEIFYTLKKNMRTNIEIGDIRYFIKDIKNIKTPEINGYTLPGYSRYIGGQWFYIYDKKKTKELIEQNFYYSN | soluble |
